From patent US20080227698A1, “OLIGOPEPTIDES FOR TREATMENT OF OSTEOPOROSIS AND OTHER BONE DISEASES AND METHODS THEREOF” (Washington University, priority 2005, published 2008)

Tests used:
[1] = target: T1, other members of the LDLR family (LDLR, LRP, LRP1 B, VLDLR, apoER2) (Homo sapiens, UniProt Q07954); test: ^125I-Mesd binding to cells expressing other members of the LDLR family; conditions: ^125I-Mesd 5 nM, 4 hours at 4° C.
T1 construct: expressed in transfected cells; host or cells: HEK293 (transient HA-LDLR); also endogenous receptors in MEF lines, MCF-7, U87 and SMC
Method: (§1) Cells (2×10^5) were seeded into 12-well dishes 1 day prior to assay. Ligand-binding buffer (minimal Eagle's medium containing 0.6% BSA with a different concentration of radioligand, 0.6 ml/well) was added to cell monolayers, in the absence or the presence of 500 nM unlabeled RAP or 500 nM unlabeled Mesd, followed with incubation for 0-4 hours at 4° C. Thereafter, overlying buffer containing unbound ligand was removed, and cell monolayers were washed and lysed in low-SDS lysis buffer (62.5 mM Tris-HCl pH 6.8, 0.2% SDS, 10% v/glycerol) and counted.
(§2) To determine whether Mesd binds to other members of the LDLR family, ^125I-Mesd binding analysis was performed with four groups of cells expressing different members of the LDLR family (FIG. 2). In the first experiment, HEK293 cells were transiently transfected with cDNAs for the LDLR, LRP5, LRP6 or empty pcDNA3 vector. […]

[2] = system: other members of the LDLR family (LDLR, LRP, LRP1 B, VLDLR, apoER2); test: as above; parameters: species or system human; conditions: ^125I-Mesd 5 nM, 4 hours at 4° C., HEK293, CHO, MEF cells
Method: as §1, §2

[3] = target: T2, LRP6 (Homo sapiens, UniProt O75581); test: ^125I-Mesd binding to LRP6, competition by Mesd or oligopeptide (FIG. 10C); parameters: plasmid pCS-Myc-hLRP6 containing the full-length human LRP6 cDNA; HA; expressed in transfected cells; host or cells: human HT1080 cells, stably transduced (pLNCX2 retroviral vector); conditions: compared with LRP5 (up to about 10-fold)
T2 sequence (O75581 20-1613): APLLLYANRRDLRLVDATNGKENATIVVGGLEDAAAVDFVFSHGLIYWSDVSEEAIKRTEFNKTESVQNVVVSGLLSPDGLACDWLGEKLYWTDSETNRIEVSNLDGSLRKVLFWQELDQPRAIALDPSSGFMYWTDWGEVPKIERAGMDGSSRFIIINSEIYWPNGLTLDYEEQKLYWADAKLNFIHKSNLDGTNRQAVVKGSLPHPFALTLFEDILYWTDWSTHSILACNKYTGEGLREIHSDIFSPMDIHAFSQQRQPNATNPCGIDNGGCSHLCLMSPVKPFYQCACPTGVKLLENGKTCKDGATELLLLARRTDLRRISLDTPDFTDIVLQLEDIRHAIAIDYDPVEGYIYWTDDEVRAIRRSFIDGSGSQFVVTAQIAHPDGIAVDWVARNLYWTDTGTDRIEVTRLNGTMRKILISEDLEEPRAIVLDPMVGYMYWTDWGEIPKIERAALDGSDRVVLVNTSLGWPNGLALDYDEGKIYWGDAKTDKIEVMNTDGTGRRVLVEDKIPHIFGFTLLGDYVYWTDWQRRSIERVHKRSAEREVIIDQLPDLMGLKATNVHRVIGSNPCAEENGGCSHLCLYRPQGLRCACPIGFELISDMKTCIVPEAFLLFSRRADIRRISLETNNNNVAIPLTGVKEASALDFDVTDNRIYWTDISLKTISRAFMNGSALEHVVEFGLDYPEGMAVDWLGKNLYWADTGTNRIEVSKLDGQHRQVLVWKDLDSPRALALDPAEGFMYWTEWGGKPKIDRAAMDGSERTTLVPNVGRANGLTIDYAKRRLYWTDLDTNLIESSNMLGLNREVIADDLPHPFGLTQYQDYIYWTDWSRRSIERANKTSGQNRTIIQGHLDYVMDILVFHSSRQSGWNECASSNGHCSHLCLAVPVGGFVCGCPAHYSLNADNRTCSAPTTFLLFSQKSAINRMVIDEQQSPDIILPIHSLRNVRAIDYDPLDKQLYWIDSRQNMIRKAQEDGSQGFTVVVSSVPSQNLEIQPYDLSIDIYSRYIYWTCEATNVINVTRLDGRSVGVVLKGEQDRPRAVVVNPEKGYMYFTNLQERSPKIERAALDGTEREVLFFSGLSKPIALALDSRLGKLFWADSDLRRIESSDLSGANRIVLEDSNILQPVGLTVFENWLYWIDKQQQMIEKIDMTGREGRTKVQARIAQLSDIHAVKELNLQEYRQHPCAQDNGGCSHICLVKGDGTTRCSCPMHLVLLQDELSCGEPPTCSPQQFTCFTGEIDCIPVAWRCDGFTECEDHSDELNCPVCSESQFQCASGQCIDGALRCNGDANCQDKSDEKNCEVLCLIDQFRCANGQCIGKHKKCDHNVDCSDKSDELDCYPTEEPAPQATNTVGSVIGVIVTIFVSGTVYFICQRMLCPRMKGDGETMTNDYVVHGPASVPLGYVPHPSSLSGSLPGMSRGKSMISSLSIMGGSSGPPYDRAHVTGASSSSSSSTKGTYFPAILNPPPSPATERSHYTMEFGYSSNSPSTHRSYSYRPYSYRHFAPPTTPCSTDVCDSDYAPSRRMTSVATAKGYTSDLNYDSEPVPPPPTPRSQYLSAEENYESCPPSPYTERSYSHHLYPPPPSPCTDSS
Method: In order to investigate the binding of Mesd polypeptide and an Mesd oligopeptide to either LRP5 or LRP6, binding assays were performed using ^125I-Mesd or ^125I-DKK1 (FIG. 10).

[4] = target: T2, LRP6; test: ^125I-Mesd cell surface ligand binding to LRP6-transduced HT1080 cells; parameters: plasmid pCS-Myc-hLRP6 containing the full-length human LRP6 cDNA; HA; expressed in transfected cells; host or cells: human HT1080 cells, stably transduced (pLNCX2 retroviral vector)
Method: To examine whether Mesd binds with high affinity to […] at the cell surface, cell surface ligand binding experiments were performed with cells stably transduced with LRP6 cDNA. Human HT1080 cells, which express undetectable levels of LRP6, were transduced with a viral vector alone (pLNCX2) or with vector containing LRP6 cDNA (Li, Y., Oncogene 23: 9129-9135, 2004) and used for ^125I-Mesd binding (FIG. 1A). ^125I-Mesd (5 nM) reached maximal binding after 2 hours incubation at 4° C. with LRP6-expressing HT1080 cells (FIG. 1A).
(A) Time course of ^125I-Mesd (5 nM) binding to LRP6-transduced HT1080 cells and the control cells. Assay was carried out for the indicated periods at 4° C. in the absence (total) or presence of 500 nM Mesd (non-specific). (B) Saturation binding of ^125I-Mesd to LRP6-transduced HT1080 cells and the control cells. Assay was carried out at indicated concentrations for 3 hours at 4° C. in the absence (total) or presence (non-specific) of 500 nM Mesd. (C) Scatchard plots of data in B. All values are the average of triple determinations with the s.d. indicated by error bars.
as §1

B1: Mesd: recombinant wild-type mouse Mesd, polyhistidine tail at the N-terminus, lacks the signal peptide, expressed in E. coli (protein)
chain: ADTPGEATPPPRKKKDIRDYNDADMARLLEQWEKDDDIEEGDLPEHKRPSAPIDFSKLDPGKPESILKMTKKGKTLMMFVTVSGNPTEKETEEITSLWQGSLFNANYDVQRFIVGSDRAIFMLRDGSYAWEIKDFLVSQDRCAEVTLEGQMYPGKGGGSKEKNKTKPEKAKKKEGDRKPRASKEDNRAGSRREDL
modifications: left off: small tags and cut ends
notes: recombinant wild-type mouse Mesd, polyhistidine tail at the N-terminus, lacks the signal peptide, expressed in E. coli
- Specific Mesd binding to U87 or SMC (express abundant LRP) [1]: minimal
- ^125I-Mesd binding to other members of the LDLR family [2]: not significantly
- Reduction of binding of ^125I-Mesd to LRP6 [3]: even greater reduction
- Inhibition of ^125I-Mesd binding to cell surface LRP6 ([4]; 500 nM unlabeled competitor, ^125I-Mesd 5 nM, 2 hours at 4° C.): > 90%
- Concentration at which Mesd specific binding saturates ([4]; LRP6-transduced HT1080 cells, 3 hours at 4° C.): > 6.4 nM
- ^125I-Mesd binding level ([4]; ^125I-Mesd 5 nM, 4 hours at 4° C., LRP6-transduced HT1080 cells): 1320 fmoles/mg cell protein
- Effect of excess unlabeled Mesd on ^125I-Mesd binding ([4]; unlabeled Mesd 500 nM, ^125I-Mesd 5 nM, 4° C.): completely eliminated this binding
